Source: the supplement of paper PMC10567573

B1: ELF3 (parent)
chain: RLVYKFGKNSSGWKEEEVLQSRN
B2: MMP1 (parent)
chain: FVRGDHRDNSPFDGPGGNLAHAFQ

Variants of: B1
Experiment: protein stability index of a GFP-peptide fusion (GPS, HEK-293T) (PSI 1-6); higher = more stable
Conditions: c terminus: native
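Note: lentivirally expressed fusions sorted by FACS into six bins by GFP to DsRed ratio, PSI derived from sequencing read proportions per bin multiplied by bin number.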

Protein stability index: each site, then its substitutions
Y4: G 2.69 | F 2.35 | D 3.73 | I 2.12 | T 3.06 | Q 3.16 | S 2.42 | R 1.23 | L 1.83 | P 3.43 | H 3.8 | A 3.39 | K 3.36 | M 2.55 | C 1.95 | N 3.13 | E 3.47 | V 2.82
R1: F 2.22 | C 2.32 | M 2.4 | I 1.62 | N 3 | G 2.87 | H 2.72 | Y 1.69 | E 3.17 | V 1.24 | K 2.55 | T 2.18 | L 1.83 | Q 2.67 | S 1.69 | A 2.54 | P 3.7
K8: P 2.25 | I 2.14 | A 2.77 | S 2.44 | N 2.46 | L 1.92 | F 1.86 | Y 1.42 | C 2.85 | E 2.97 | V 1.91 | R 1.31 | M 1.38 | D 3.36 | G 2.49 | T 2.62 | H 2.26
N9: E 3.08 | D 3.19 | A 1.7
F6: G 3.75 | R 3.06 | E 4.52 | A 3.69 | S 3.28 | L 1.61 | Y 2.45 | Q 3.08 | V 3.89 | N 3.65 | K 3.53 | T 3.5 | C 1.42 | H 3.29 | I 2.26 | D 4.7 | W 2.12 | P 3.47
V3: P 2.63 | K 2.49 | A 3.88 | G 2.48 | T 2.86 | Y 2.37 | R 2.75 | S 2.7 | D 4.2 | F 2.38 | C 1.71 | E 4.75 | M 2.38 | H 2.53 | L 1.9 | N 3.46
G7: Q 2.5 | T 2.31 | D 4.11 | N 2.64 | P 2.31 | A 1.89 | M 1.81 | K 1.9 | E 2.94 | I 1.46 | V 1.49 | W 3.57 | H 1.8 | S 2.67 | R 2.29 | Y 2.41
L2: Q 3.04 | G 2.78 | T 2.84 | N 3.41 | I 2.45 | C 2.29 | W 1.58 | K 2.31 | V 2.71 | E 4.2 | P 2.66 | D 4.22 | H 3.38 | F 2.79 | Y 1.85 | S 2.93 | R 2.87 | A 3.2 | M 2.99
K5: E 2.89 | I 1.36 | R 1.05 | S 2.5 | H 1.98 | M 1.91 | P 1.89 | D 2.8 | L 2.75 | N 2.39 | C 2.52 | V 1.95 | Y 2.16 | Q 2.09 | T 2.14 | A 1.76

Variants of: B2
Experiment: as above
Conditions: c terminus: a fixed tail appended

Protein stability index of substitutions, site by site:
F23: N 1.73 | G 2.12 | R 2.03 | M 2.25 | Y 2.12 | T 1.56 | E 2.38 | S 1.88 | V 1.99 | Q 2.11 | C 1.38 | H 2.08 | L 1.89 | P 2.63 | K 2.45 | D 1.9 | I 2.33 | A 1.78 | W 2.74
A20: D 1.74 | Y 1.29 | E 1.89 | I 2.04 | G 1.92 | L 2.49 | H 1.44 | M 1.88 | F 2.66 | C 2.69 | K 2.56 | Q 1.69 | N 1.76 | V 1.99 | T 3.31 | R 1.43 | S 1.88 | P 1.74
P15: I 1.72 | A 1.53 | H 1.79 | Q 1.64 | K 1.94 | Y 2.52 | T 1.38 | S 4.22 | E 2.37 | R 3.76 | M 2.72 | D 2.97 | F 2.1 | W 1.87 | N 2.11 | G 1.61 | L 1.95
H21: A 2.77 | D 2.15 | P 1.47 | I 2.7 | E 1.94 | V 1.6 | G 1.81 | Q 1.62 | M 2.01 | F 2.31 | L 1.57 | C 2.53 | T 2.1 | R 1.33 | S 2.2 | Y 2.91 | N 2.15 | K 1.95
A22: V 1.53 | E 1.38 | N 1.75 | Y 2.34 | W 1.68 | Q 1.46 | P 3.37 | C 1.98 | T 2.31 | L 1.74 | K 2.42 | D 2.44 | H 2 | M 2.4 | S 1.91 | R 2.58 | G 1.58 | F 2.25 | I 2.06
Q24: T 3.41 | D 2.75 | P 1.97 | M 2.73 | H 1.84 | E 3.81 | K 1.6 | Y 3.94 | V 2.39 | C 1.72 | L 1.93 | F 2.78 | R 1.63 | A 1.88 | N 1.62 | G 1.99 | S 1.02
G16: K 1.52 | M 1.79 | L 2.81 | S 2.23 | D 2.29 | H 1.87 | P 1.75 | Q 2.75 | T 2.32 | V 1.83 | R 2.45 | I 2.4 | C 2.63 | E 2.54 | Y 2.73 | N 1.69 | A 1.34 | W 3.43
G17: Q 1.95 | T 2.05 | M 3.38 | D 1.82 | N 2.48 | R 1.79 | F 2.18 | I 2.43 | E 1.6 | C 2.62 | Y 3.31 | A 1.58 | L 2.29 | K 1.92 | P 1.37 | V 2.43 | S 2.3 | W 2.48 | H 1.9
L19: M 2.1 | N 1.73 | S 1.15 | I 1.95 | K 2.25 | C 1.96 | G 2.63 | H 1.39 | Y 1.64 | Q 1.51 | R 1.66 | E 1.99 | P 1.49 | D 2.35 | V 3.29 | F 2 | T 2.08 | A 1.38
N18: G 1.99 | Y 1.7 | P 2.17 | E 2.15 | H 1.88 | M 1.99 | R 3.01 | I 1.01 | T 1.92 | L 3.23 | S 2.18 | K 2.5 | V 2.14 | C 1.5 | D 1.5 | A 2.74 | Q 2.27 | F 4.34
G14: S 1.89 | H 1.39 | I 2.51 | T 1.76 | W 1.69 | P 1.91 | Q 3.14 | V 3.45 | K 1.77 | R 1.6 | L 2.44 | N 1.7 | Y 2.2
